Target: T1, COVID-19 nucleocapsid protein (N-protein) (severe acute respiratory syndrome …, UniProt P0DTC9 1-419)
T1 construct: also called nucleocapsid protein (N-protein) of severe acute respiratory syndrome coronavirus 2 (SARS-CoV-2)
Experiment: bio-layer interferometry (BLI)

| Binder | Kd [µM] |
| --- | --- |
| ACTNLEWADCYINHNCA (Ci, Cii and Ciii cysteines covalently bound to TATA scaffold) [BCY19572] | 1 |
| ACTNLEWANCYINHNCA (Ci, Cii and Ciii cysteines covalently bound to TATA scaffold) [BCY19573] | 1.19 |
| ACLAPGQRCQWQRECA (Ci, Cii and Ciii cysteines covalently bound to TATA scaffold) [BCY17653] | 0.799 |
| ACTNLEWAYCYIHNECA (Ci, Cii and Ciii cysteines covalently bound to TATA scaffold) [BCY19571] | 0.958 |
| ACDDWMIGCRITYKCA (Ci, Cii and Ciii cysteines covalently bound to TATA scaffold) [BCY17642] | 3.95 |
| ACTNLQWADCYINHVCA (Ci, Cii and Ciii cysteines covalently bound to TATA scaffold) [BCY19458] | 2.29 |
| ACTNLQWAMCYITGNCA (Ci, Cii and Ciii cysteines covalently bound to TATA scaffold) [BCY18172] | 2.74 |
| ACAWDEYYQVCLPCA (Ci, Cii and Ciii cysteines covalently bound to TATA scaffold) [BCY16580] | 6.68 |
| ACTNLDWAYCYIHNQCA (Ci, Cii and Ciii cysteines covalently bound to TATA scaffold) [BCY19570] | 0.978 |
| ACRVTLDACWDTPCA (Ci, Cii and Ciii cysteines covalently bound to TATA scaffold) [BCY16579] | 0.759 |
| ACENFQLGCRITYKCA (Ci, Cii and Ciii cysteines covalently bound to TATA scaffold) [BCY17643] | 4.23 |

— patent US20240083945A1 (Bicycle, published 2024)
